From patent US20220406376A1 (MacroGenics, published 2022)
Numbering of substitutions follows the chain as printed.

B1: DART-2 (bispecific antibody)
chain 1: not shown
chain 2: SYELTQPPSVSVSPGQTASITCSGDNIGDQYAHWYQQKPGQSPVLVIYQDKNRPSGIPERFSGSNSGNTATLTISGTQAMDEADYYCATYTGFGSLAVFGGGTKLTVLGGGSGGGGQVQLVQSGAEVKKPGASVKVSCKASGYTFTNYGMNWVRQAPGQGLEWMGWINTNIGEPTYTEEFKGRVTMTRDTSISTAYMELSRLRSDDTAVYYCARDDGYGNRVSYWGQGTLVTVSSGGCGGGKVAACKEKVAALKEKVAALKEKVAALKE
B2: DART-E (bispecific antibody, human IgG1, kappa, L234A L235A)
heavy: QVQLQQPGAELVRPGASVKLSCKASGYTFTSYWINWVKQRPGQGLEWIGNIYPSDSYTNYNQKFKDKATLTVDKSSSTAYMQLSSPTSEDSAVYYCTRDYGSSYSFDYWGQGTTLTVSSASTKGPSVFPLAPSSKSTSGGTAALGCLVKDYFPEPVTVSWNSGALTSGVHTFPAVLQSSGLYSLSSVVTVPSSSLGTQTYICNVNHKPSNTKVDKRVEPKSCDKTHTCPPCPAPEAAGGPSVFLFPPKPKDTLMISRTPEVTCVVVDVSHEDPEVKFNWYVDGVEVHNAKTKPREEQYNSTYRVVSVLTVLHQDWLNGKEYKCKVSNKALPAPIEKTISKAKGQPREPQVYTLPPSREEMTKNQVSLSCAVKGFYPSDIAVEWESNGQPENNYKTTPPVLDSDGSFFLVSKLTVDKSRWQQGNVFSCSVMHEALHNRYTQKSLSLSPGK
light: DIQMTQTTSSLSASLGDRVTISCRPSQDISNYLNWYQQKPDGTVKLLIYYTSRLRSGVPSRFSGSGSGTDYSLTISNLEQEDIATYFCQQGDTLPYTFGGGTKLEIKRTVAAPSVFIFPPSDEQLKSGTASVVCLLNNFYPREAKVQWKVDNALQSGNSQESVTEQDSKDSTYSLSSTLTLSKADYEKHKVYACEVTHQGLSSPVTKSFNRGEC
chain 1: QVQLQQPGAELVRPGASVKLSCKASGYTFTSYWINWVKQRPGQGLEWIGNIYPSDSYTNYNQKFKDKATLTVDKSSSTAYMQLSSPTSEDSAVYYCTRDYGSSYSFDYWGQGTTLTVSSASTKGPSVFPLAPSSKSTSGGTAALGCLVKDYFPEPVTVSWNSGALTSGVHTFPAVLQSSGLYSLSSVVTVPSSSLGTQTYICNVNHKPSNTKVDKRVEPKSCDKTHTCPPCPAPEAAGGPSVFLFPPKPKDTLMISRTPEVTCVVVDVSHEDPEVKFNWYVDGVEVHNAKTKPREEQYNSTYRVVSVLTVLHQDWLNGKEYKCKVSNKALPAPIEKTISKAKGQPREPQVYTLPPSREEMTKNQVSLWCLVKGFYPSDIAVEWESNGQPENNYKTTPPVLDSDGSFFLYSKLTVDKSRWQQGNVFSCSVMHEALHNHYTQKSLSLSPGGGGSGGGSGGGDIQMTQSPSSLSASVGDRVTITCKASQDISNYLSWFQQKPGKAPKTLIYRANRLQSGVPSRFSGSGSGTDFTLTISSLQPEDFATYYCLQHDEFPWTFGQGTKLEIKGGGSGGGGQVQLVQSGAEVKKPGASVKVSCKASGYTFTNYGMNWVRQAPGQGLEWMGWINTNIGEPTYTEEFKGRVTMTRDTSISTAYMELSRLRSDDTAVYYCARDDGYGNRVSYWGQGTLVTVSSGGCGGGEVAALEKEVAALEKEVAALEKEVAALEK
chain 2: DIQMTQSPSSLSASVGDRVTITCKASQDISNYLSWFQQKPGKAPKTLIYRANRLQSGVPSRFSGSGSGTDFTLTISSLQPEDFATYYCLQHDEFPWTFGQGTKLEIKGGGSGGGGQVQLVQSGAEVKKPGASVKVSCKASGYTFTNYGMNWVRQAPGQGLEWMGWINTNIGEPTYTEEFKGRVTMTRDTSISTAYMELSRLRSDDTAVYYCARDDGYGNRVSYWGQGTLVTVSSGGCGGGKVAALKEKVAALKEKVAALKEKVAALKE
B3: TRIDENT-A3 (bispecific antibody, human IgG1, kappa, L234A L235A)
chain 1: DIQMTQSPSSLSASVGDRVTITCRPSQDISNYLNWYQQKPDKTVKLLIYYTSRLRSGVPSRFSGSGSGTDFTFTISSLQPEDIATYFCQQGDTLPYTFGQGTKLEIKGGGSGGGGQVQLVQSGAEVKKPGASVKVSCKASGYTFTSYWINWVKQAPGQGLEWIGNIYPSDSYTNYNQKFKDKATITADKSTSTAYMELSSLRSEDTAVYYCTRDYGSAYSYSLWGQGTTVTVSSASTKGEVAACEKEVAALEKEVAALEKEVAALEKGGGDKTHTCPPCPAPEAAGGPSVFLFPPKPKDTLMISRTPEVTCVVVDVSHEDPEVKFNWYVDGVEVHNAKTKPREEQYNSTYRVVSVLTVLHQDWLNGKEYKCKVSNKALPAPIEKTISKAKGQPREPQVYTLPPSREEMTKNQVSLWCLVKGFYPSDIAVEWESNGQPENNYKTTPPVLDSDGSFFLYSKLTVDKSRWQQGNVFSCSVMHEALHNHYTQKSLSLSPGK
chain 2: DIQMTQSPSSLSASVGDRVTITCRPSQDISNYLNWYQQKPDKTVKLLIYYTSRLRSGVPSRFSGSGSGTDFTFTISSLQPEDIATYFCQQGDTLPYTFGQGTKLEIKGGGSGGGGQVQLVQSGAEVKKPGASVKVSCKASGYTFTSYWINWVKQAPGQGLEWIGNIYPSDSYTNYNQKFKDKATITADKSTSTAYMELSSLRSEDTAVYYCTRDYGSAYSYSLWGQGTTVTVSSASTKGKVAACKEKVAALKEKVAALKEKVAALKE
heavy: QVQLVQSGAEVKKPGASVKVSCKASGYTFTNYGMNWVRQAPGQGLEWMGWINTNIGEPTYTEEFKGRVTMTRDTSISTAYMELSRLRSDDTAVYYCARDDGYGNRVSYWGQGTLVTVSSASTKGPSVFPLAPSSKSTSGGTAALGCLVKDYFPEPVTVSWNSGALTSGVHTFPAVLQSSGLYSLSSVVTVPSSSLGTQTYICNVNHKPSNTKVDKRVEPKSCDKTHTCPPCPAPEAAGGPSVFLFPPKPKDTLMISRTPEVTCVVVDVSHEDPEVKFNWYVDGVEVHNAKTKPREEQYNSTYRVVSVLTVLHQDWLNGKEYKCKVSNKALPAPIEKTISKAKGQPREPQVYTLPPSREEMTKNQVSLSCAVKGFYPSDIAVEWESNGQPENNYKTTPPVLDSDGSFFLVSKLTVDKSRWQQGNVFSCSVMHEALHNRYTQKSLSLSPGK
light: DIQMTQSPSSLSASVGDRVTITCKASQDISNYLSWFQQKPGKAPKTLIYRANRLQSGVPSRFSGSGSGTDFTLTISSLQPEDFATYYCLQHDEFPWTFGQGTKLEIKRTVAAPSVFIFPPSDEQLKSGTASVVCLLNNFYPREAKVQWKVDNALQSGNSQESVTEQDSKDSTYSLSSTLTLSKADYEKHKVYACEVTHQGLSSPVTKSFNRGEC
B4: DART-4 (bispecific antibody, human IgG1, kappa, L234A L235A)
heavy: B3 heavy
light: B3 light
chain 1: QVQLVQSGAEVKKPGASVKVSCKASGYTFTNYGMNWVRQAPGQGLEWMGWINTNIGEPTYTEEFKGRVTMTRDTSISTAYMELSRLRSDDTAVYYCARDDGYGNRVSYWGQGTLVTVSSASTKGPSVFPLAPSSKSTSGGTAALGCLVKDYFPEPVTVSWNSGALTSGVHTFPAVLQSSGLYSLSSVVTVPSSSLGTQTYICNVNHKPSNTKVDKRVEPKSCDKTHTCPPCPAPEAAGGPSVFLFPPKPKDTLMISRTPEVTCVVVDVSHEDPEVKFNWYVDGVEVHNAKTKPREEQYNSTYRVVSVLTVLHQDWLNGKEYKCKVSNKALPAPIEKTISKAKGQPREPQVYTLPPSREEMTKNQVSLWCLVKGFYPSDIAVEWESNGQPENNYKTTPPVLDSDGSFFLYSKLTVDKSRWQQGNVFSCSVMHEALHNHYTQKSLSLSPGGGGSGGGSGGGEIVLTQSPATLSLSPGERATLSCRASQSVSSYLAWYQQKPGQAPRLLIYDASNRATGIPARFSGSGSGTDFTLTISSLEPEDFAVYYCQQRSNWPPALTFGGGTKVEIKGGGSGGGGQVQLQQWGAGLLKPSETLSLTCAVYGGSFSGYYWSWIRQSPEKGLEWIGEINHGGYVTYNPSLESRVTISVDTSKNQFSLKLSSVTAADTAVYYCARDYGPGNYDWYFDLWGRGTLVTVSSGGCGGGEVAALEKEVAALEKEVAALEKEVAALEK
chain 2: EIVLTQSPATLSLSPGERATLSCRASQSVSSYLAWYQQKPGQAPRLLIYDASNRATGIPARFSGSGSGTDFTLTISSLEPEDFAVYYCQQRSNWPPALTFGGGTKVEIKGGGSGGGGQVQLQQWGAGLLKPSETLSLTCAVYGGSFSGYYWSWIRQSPEKGLEWIGEINHGGYVTYNPSLESRVTISVDTSKNQFSLKLSSVTAADTAVYYCARDYGPGNYDWYFDLWGRGTLVTVSSGGCGGGKVAALKEKVAALKEKVAALKEKVAALKE
B5: TRIDENT-A (bispecific antibody, human IgG1, kappa, L234A L235A)
chain 1: B3 chain 1 with A218S, Y221F, S222D, L223Y
chain 2: B3 chain 2 with A218S, Y221F, S222D, L223Y
heavy: B3 heavy
light: B3 light
B6: TRIDENT-A4 (bispecific antibody, human IgG1, kappa, L234A L235A)
chain 1: B3 chain 1 with A218S, S222N, L223V
chain 2: B3 chain 2 with A218S, S222N, L223V
heavy: B3 heavy
light: B3 light
B7: TRIDENT-A2 (bispecific antibody, human IgG1, kappa, L234A L235A)
chain 1: B3 chain 1 with Y221M, L223T
chain 2: B3 chain 2 with Y221M, L223T
heavy: B3 heavy
light: B3 light

How the values were obtained:
[1] = target: T1, HER2/neu on the surface of target cells (N87, JIMT-1, MCF-7, MDA-MB231) (UniProt P04626 23-1255, limits assumed); experiment: flow cytometry on N87 gastric cancer cells, anti-hFc APC MFI
T1 construct: whole, on cells

[2] = target: T1, HER2/neu on the surface of target cells …; experiment: as above; remark: listed apart in the source
[3] = target: T2, CD137 on the surface of cells (activated human T cells; engineered CHO cells) (human, UniProt Q07011 24-255); experiment: flow cytometry on activated pan T cells gated CD8, anti-hFc APC MFI
T2 construct: whole, on cells; also called human CD137; cell surface expressed CD137

[4] = target: T2, CD137 on the surface of cells …; experiment: flow cytometry on activated pan T cells (donor D46433, CD8 PE), anti-hFc APC MFI
[5] = target: T1, HER2/neu on the surface of target cells …; experiment: flow cytometry on N87 cells, anti-hFc APC MFI
[6] = target: T1, HER2/neu on the surface of target cells …; experiment: flow cytometry on MCF-7 cells, anti-hFc APC MFI
[7] = target: T1, HER2/neu on the surface of target cells …; experiment: flow cytometry on JIMT-1 cells, anti-hFc APC MFI
[8] = target: T2, CD137 on the surface of cells …; experiment: flow cytometry on activated pan T cells gated CD8, anti-hFc APC MFI; remark: listed apart in the source

T2 sequence (Q07011 24-255, change not shown): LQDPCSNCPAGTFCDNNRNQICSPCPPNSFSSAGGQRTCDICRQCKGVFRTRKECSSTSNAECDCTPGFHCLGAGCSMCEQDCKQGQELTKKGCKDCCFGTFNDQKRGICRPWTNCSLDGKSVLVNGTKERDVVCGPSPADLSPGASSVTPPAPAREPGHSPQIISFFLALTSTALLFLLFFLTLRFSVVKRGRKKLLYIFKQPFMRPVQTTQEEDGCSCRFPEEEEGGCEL

Binder	EC50 (read off the curve) [1] [nM]	binding result [2]	EC50 (read off the curve) [3] [nM]	EC50 (read off the curve) [4] [nM]	EC50 (read off the curve) [5] [nM]	EC50 (read off the curve) [6] [nM]	EC50 (read off the curve) [7] [nM]	EC50 (read off the curve) [8] [nM]
B1	~0.4	–	–	–	–	–	–	–
B2	–	binds	~0.1	–	–	–	–	–
B3	–	–	–	~0.05	~1	~0.2	~0.7	–
B4	–	–	–	–	–	–	–	~0.3
B5	–	–	–	~0.06	~1	~0.2	~0.9	–
B6	–	–	–	~0.05	~1	~0.2	~0.7	–
B7	–	–	–	~0.04	~1	~0.2	~0.7	–
